The numbers were not newly measured in PMC10636758, which cites them from elsewhere.

For data set [1], the target named is Histone H3 peptide (Homo sapiens).
The target of a further data set is HP1α (Homo sapiens) (UniProt P45973).

A value given as a limit tells only on which side of the number the result lay.

Take HP1α CSD (from UniProt P45973): in data set [1], the Kd was 58 µM.

As for HP1α (from UniProt P45973), the Kd with HP1α (Homo sapiens) was < 1 µM.
